We go through one molecule from patent US20240352134A1.

The target of test [1] is human CCR8 (human) (UniProt P51685). The test can be described thus: cell-based or functional assay.
Test [2] shares this target. The test can be described thus: binding affinity EC50, comparison of Table 12 (FACS on CCR8-expressing cells).

Chain of human CCR8 (human) (P51685 whole entry): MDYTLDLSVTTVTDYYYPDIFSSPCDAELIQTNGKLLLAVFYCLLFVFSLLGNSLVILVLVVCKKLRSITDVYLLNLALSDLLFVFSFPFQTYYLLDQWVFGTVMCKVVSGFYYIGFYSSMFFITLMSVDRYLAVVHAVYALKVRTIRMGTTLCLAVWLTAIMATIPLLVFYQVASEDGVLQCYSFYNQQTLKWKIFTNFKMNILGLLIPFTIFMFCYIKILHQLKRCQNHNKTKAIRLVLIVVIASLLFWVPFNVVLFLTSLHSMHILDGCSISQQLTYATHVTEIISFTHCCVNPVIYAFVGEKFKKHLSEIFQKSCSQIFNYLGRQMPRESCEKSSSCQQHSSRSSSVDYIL

B1: SRF-114 (antibody, from another filing, V domains shown)
VH: QVQLVQSGAEVKKPGASVKVSCKASGYTFTSYYMHWVRQAPGQGLEWMGIINPSGGSTSYAQKFQGRVTMTRDTSTSTVYMELSSLRSEDTAVYYCARAVRNRFRFDYWGQGTLVTVSS
VL: QSALTQPASVSGSPGQSITISCTGTSSDVGSYNLVSWYQQHPGKAPKLMIYEVSKRPSGVSNRFSGSKSGNTASLTISGLQAEDEADYYCSSYAGSSTFVVFGGGTKLTVL
The term EC50 denotes the concentration needed to bring the measured effect to its halfway point. Molecule B1 displayed a Signal block Ca2+ in test [1] of 179 nM. The 50% effective concentration (EC50) in test [2] was found to be 3.2 nM.
